Experimental data taken from patent US20210388118A1 (ZHEJIANG SHIMAI PHARMACEUTICAL, published 2021).

Columns and labels:
recombinant human EGFR [1] = target: T1, recombinant human EGFR (human, UniProt P00533 25-645); test: ELISA, recombinant human EGFR coated, Fab
T1 construct: Bought protein; construct not described; also called hEGFR
Protocol: (§1) ELISA was performed according to standard protocols. Briefly, recombinant human or cynomolgus EGFR was coated on Corning EIA/RIA high-binding 96-well plates (Corning Inc.) at 50 ng per well overnight at 4° C. and blocked with 3% nonfat milk in PBS (pH7.4). Fivefold serially diluted antibodies were added and incubated at room temperature for 2 hours. The plates were washed with PBS containing 0.05% Tween 20. Bound Fab and IgG1s were detected by HRP-conjugated anti-FLAG tag antibody and HRP-conjugated anti-human IgG (Fc-specific) antibody, respectively. The assay was developed at room temperature with TMB substrate (Sigma-Aldrich) and monitored at 450 nm with a microplate reader. The half-maximal binding (EC₅₀) was calculated by fitting the data to the Langmuir adsorption isotherm.

[2] = target: T2, human EGFR on cells (HCT116, A549, A431, HT29) (human, UniProt P00533 25-1210); test: flow cytometry on A549 cells, Fab at 100 nM
T2 construct: whole, on cells; also called cell surface EGFR; cell-surface EGFR
Protocol: To measure the binding of SMET5 Fab to cell surface EGFR, about 5×10⁵ cells were incubated with 100 nM antibody on ice for 1 h. The cells were washed once with PBS containing 0.1% bovine serum albumin (PBSA) and resuspended in 200 μl PBSA. Then 5 μl anti-His-PE conjugate was added and incubated for 30 min. The cells were washed once with PBSA and then used for flow cytometry analysis.

[3] = target: T2, human EGFR on cells (HCT116, A549, …); test: flow cytometry on A549 cells, 2 µg/mL
Protocol: To measure the binding of IgG1 s of SMET5 variants to cell surface EGFR, about 5×10⁵ cells were incubated with 2 μg mL⁻¹ antibodies on ice for 1 h. The cells were washed once with PBSA and resuspended in 200 μl PBSA. Then 5 μ1 goat F(ab′)2 anti-human IgG (γ)-FITC conjugate was added and incubated for 30 min. The cells were washed once with PBSA and then used for flow cytometry analysis.

recombinant human EGFR [4] = target: T1, recombinant human EGFR; test: ELISA, recombinant EGFR coated
Protocol: as §1

[5] = target: T3, recombinant cynomolgus EGFR (cynomolgus, UniProt A0A2K5WK39 25-645); test: ELISA, recombinant cynomolgus EGFR coated
T3 construct: Bought protein; construct not described
Protocol: as §1

recombinant human EGFR [6] = target: T1, recombinant human EGFR; test: ELISA, recombinant human EGFR coated
Protocol: as §1

B1: SMET5 Fab (Fab, V domains shown)
VH: EVQLVETGGGVVQPGRSLRLSCAASGFTFSSYAMHWVRQAPGKGLEWVAVISYDGSNKYYADSVKGRFTISRDNSKNTLYLQMNSLRAEDTAVYYCARGYVARGDFDYWGQGTLVTVSS
VL: DIQMTQSPSTLSASVGDRVTITCRASQTVDSWLAWYQQKPGKAPKLLIYATSSLQSGVPSRFSGSGSGTDFTLTISSLQPEDFATYYCQQGHIAPHTFGQGTTLEIK
notes: Human Fab from a phage library, expressed in E. coli, His-tagged and detected by anti-FLAG; also called SMETS
Question: Which results are given for B1?
Answer: binding result (recombinant human EGFR [1]): binds; binding result [2]: binds

B2: SMET5.3 Fab (Fab, V domains shown)
VH: EVQLVETGGGVVQPGRSLRLSCAASGFTFSSYAMHWVRQAPGKGLEWVAVISYDGSNKYYADSVKGRFTISRDNSKNTLYLQMNSLRAEDTAVYYCARGYVARGDFDYWGQGTLVTVSS
VL: DIQLTQSPSTLSASVGDRVTITCRSNQTADSWLAWYQQKPGKAPNLLIYAASNLQSGVPSRFSGSGSGTDFTLTISSLQPEDFATYYCQQSYSTPFMFTFGQGTKLEIK
notes: His-tagged Fab
Question: Does B2 bind (recombinant human EGFR [1])?
Answer: Result: binds

B3: SMET5.4 Fab (Fab, V domains shown)
VH: EVQLVETGGGVVQPGRSLRLSCAASGFTFSSYAMHWVRQAPGKGLEWVAVISYDGSNKYYADSVKGRFTISRDNSKNTLYLQMNSLRAEDTAVYYCARGYVARGDFDYWGQGTLVTVSS
VL: DIQLTQSPSSVSASVGDRVTITCRASQGISSWLAWYQQKPGKAPKLLIYAASALQSGVPSRFSGSGSGTEFTLTIYDLQPDDFATYFCQQYDTFLWTFGQGTKVEIK
notes: His-tagged Fab
Question: Does B3 bind (recombinant human EGFR [1])?
Answer: Result: binds

B4: SMET5 IgG1 (antibody, V domains shown)
VH: EVQLVETGGGVVQPGRSLRLSCAASGFTFSSYAMHWVRQAPGKGLEWVAVISYDGSNKYYADSVKGRFTISRDNSKNTLYLQMNSLRAEDTAVYYCARGYVARGDFDYWGQGTLVTVSS
VL: DIQMTQSPSTLSASVGDRVTITCRASQTVDSWLAWYQQKPGKAPKLLIYATSSLQSGVPSRFSGSGSGTDFTLTISSLQPEDFATYYCQQGHIAPHTFGQGTTLEIKR
notes: Human IgG1 from 293FS cells; also called SMETS IgG1
Question: What does the source list for B4?
Answer: binding result [3]: binds; binding result (recombinant human EGFR [4]): binds

B5: SMET5.3 IgG1 (antibody, V domains shown)
VH: EVQLVETGGGVVQPGRSLRLSCAASGFTFSSYAMHWVRQAPGKGLEWVAVISYDGSNKYYADSVKGRFTISRDNSKNTLYLQMNSLRAEDTAVYYCARGYVARGDFDYWGQGTLVTVSS
VL: DIQLTQSPSTLSASVGDRVTITCRSNQTADSWLAWYQQKPGKAPNLLIYAASNLQSGVPSRFSGSGSGTDFTLTISSLQPEDFATYYCQQSYSTPFMFTFGQGTKLEIKR
notes: Human IgG1 from 293FS cells
Question: Does B5 bind [3]?
Answer: Result: binds

Question: Does B5 bind (recombinant human EGFR [4])?
Answer: Result: binds

B6: SMET5.2 IgG1 (antibody, V domains shown)
VH: EVQLVETGGGVVQPGRSLRLSCAASGFTFSSYAMHWVRQAPGKGLEWVAVISYDGSNKYYADSVKGRFTISRDNSKNTLYLQMNSLRAEDTAVYYCARGYVARGDFDYWGQGTLVTVSS
VL: DVVMTQSPSTLSASVGDRVTITCRASQSMSRWLAWYQQKPGKGPKLLIYATSTLQSGVPSRFSGSGSGTEFTLTISSLQPEDFATYYCQQLDSFPFSFTFGPGTKVDLKR
notes: Human IgG1 from 293FS cells
Question: B6 was tested. Which EC50 [5] did it give?
Answer: The EC50 was 0.76 nM.

Question: And the EC50 (recombinant human EGFR [6])?
Answer: The EC50 was 1.4 nM.
